The values that follow are results of earlier work, collected in paper PMC11969061.

Usually Kd stands for the free concentration of one partner at which half of the binding sites on the other are occupied at equilibrium, for simple one-to-one binding.

The target in this data set is BTN3A IgV (Homo sapiens) (UniProt O00481).
Chain of UniProt O00481 (O00481 30-139): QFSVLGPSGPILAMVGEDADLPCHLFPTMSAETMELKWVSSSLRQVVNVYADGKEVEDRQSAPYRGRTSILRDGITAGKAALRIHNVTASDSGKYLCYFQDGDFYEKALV

BTN2A1 IgV (from UniProt Q7KYR7): the Kd is 600 µM.
